Measurements from the RNAGym collection of RNA variant scans (doi:10.7554/elife.90254).

B1: LINE1-mini (parent)
chain: GGCAGAGCUCAACACAGCGUGGCAAAGUGGCUGUGGCUAGACUGCC

Variants of: B1
Assay: self-cleavage, relative activity (ratio to wild type); higher = more cleavage; in vitro, sequencing; the parent is a self-cleaving ribozyme

Row | Variant | self-cleavage
1 | GGCAGAGCUCAAGACAGCGUGGCAAAGUGGCUGUGGCUAGACUACC | 0.12
2 | GGCGGAGCUCAACACAGCGUGGCAAAGUGGCUGUGGCUAGACAGCC | 0.12
3 | GGCAGAGCUCAACACACAGUGGCAAAGUGGCUGUGGCUAGACUGCC | 0.1
4 | GGUAGAGCUCAACACAGCGUGGCAAAGUGGCUGUGGCUAGACUGCA | 0.18
5 | GGCAGAGCUCUACACAGCGUGGCAAAGUUGCUGUGGCUAGACUGCC | 0.17
6 | GGGAGAGCUCAACACAGCGUGGCAAAGUUGCUGUGGCUAGACUGCC | 0.55
7 | GGCAGAGCUCAACACAGCGUGGCACAGUGGCUGUGGCCAGACUGCC | 0.46
8 | GGCAGAGCUCAACACAGCGUAGCAAUGUGGCUGUGGCUAGACUGCC | 1.89
9 | GGCAGAGCUCAACACAGCGUGGCAAAGUGGGUGUGGUUAGACUGCC | 0.05
10 | GGCAGAGCUCAACACAGCGUGGCAAAGUGGCCGUGGCUAGAGUGCC | 0.1
11 | GGCAGAGCUCAGCACAGCGUGGCAAAGUGGCUGUGGCUAGACUGAC | 0.1
12 | GGCAGAGCUCAACACAGCGUGGGAAAGUGGCGGUGGCUAGACUGCC | 0.21
13 | GGCAGAGCACAACAGAGCGUGGCAAAGUGGCUGUGGCUAGACUGCC | 0.25
14 | GGCAGAGCUCAACACAGCGUGGCAAUGUGGCUGUGGCUAGACUGAC | 1.95
15 | GGCAGAGCUCAACACAGCGUGGCAAAGUGCCUGUGGGUAGACUGCC | 0.07
16 | GGCAGAGCUCAAUACAGCGUGACAAAGUGGCUGUGGCUAGACUGCC | 0.13
17 | GGCAGAGCUGAACACAGCGUGGCAAAGUGGCUUUGGCUAGACUGCC | 0.02
18 | GACAGAGCUCAACACAGCGUGGCAAAGUGGCUUUGGCUAGACUGCC | 0.13
19 | GGCAGAGCUCGACACAGCGUGGCAAAGUGGCUGUGGCUAGACUGCA | 0.04

Row | Variant | self-cleavage
20 | GGCAGAGCUCAACACAGGGUGGCAAAGUGGCUGUGGCUAGACUUCC | 0.05
21 | GGCAGAGCUCAACAGAGCGUGGCAAAGUGGCUGUGGCUAGAAUGCC | 0.04
22 | GGCAUAGCUCAACACAGCGUGGCAGAGUGGCUGUGGCUAGACUGCC | 0.12
23 | GGCAGAGCUCAACACAGCGUGUCAAAGUGGCUGCGGCUAGACUGCC | 0.44
24 | GGCAGAGGUCAACACAGCGUGGCAAAGUGGCUGCGGCUAGACUGCC | 0.04
25 | GGCAGCGCUCAACACAGCGUGGCAAAGUGGCUGUGGCGAGACUGCC | 0.02
26 | GCCAGAGCUCAACACACCGUGGCAAAGUGGCUGUGGCUAGACUGCC | 0.05
27 | UGCAGAGCUCACCACAGCGUGGCAAAGUGGCUGUGGCUAGACUGCC | 0.02
28 | GGCAGAGCUCACCACAGCGUGGUAAAGUGGCUGUGGCUAGACUGCC | 0.08
29 | GGCAGAGCUCAACACAGCGUGGCAAAGUCGCUGUGGCUAGGCUGCC | 0.21
30 | GGCAGAGCUCAACACAGCGUGGCAAAGUGGCUGUGGCCAGACUGAC | 0.35
31 | GGCAGAGCUCAACACAGCGUGCCAAAGUGGCUGUGGCGAGACUGCC | 0.05
32 | GGAAGAGCUCAACACAGCGUGGCAAAGUGGCUGUGGCUAGUCUGCC | 0.32
33 | GGCAGAGCUCAACACAGCGUGGCAAAGUGGGUGCGGCUAGACUGCC | 0.14
34 | GGCAGAGCUCAACACAGCUUGGCAAAGUGGUUGUGGCUAGACUGCC | 0.44
35 | GGCAGAGCUCAACCCAGUGUGGCAAAGUGGCUGUGGCUAGACUGCC | 0.07
36 | GGCAGAGUUCAACACAGCGUGGCAAAGUGGCUGUGGCUAGACUCCC | 0.08
37 | GGCAGAGCUCAACACGGCGUGGCAAAGUGGCUGUGGCUAAACUGCC | 0.05
38 | GGCAGAACUCAACACAGCGUGGCAAAGUGGCUGUGGCUAGAUUGCC | 0.16

Row | Variant | self-cleavage
39 | GGCAGAGCUCAACACAGCAUGUCAAAGUGGCUGUGGCUAGACUGCC | 0.99
40 | GGCAGAGCUAAACACAGCGUGACAAAGUGGCUGUGGCUAGACUGCC | 0.05
41 | GGCAGAGCUCAACACAGCGUGGCAAAGUGUCUGUGGCUAGACUACC | 0.42
42 | GGCAGAGCUCAACACAGCGUGGCAAAGUGGCUGUGGUUAGUCUGCC | 0.06
43 | GGCAGAGCUCAACACAGCGUUGCAAAGUGGCUGUGGCUAGACUGCA | 1.14
44 | GGCAGACCUCAACACAGCGUGGCAAAGUCGCUGUGGCUAGACUGCC | 0.05
45 | GGCAGAGCUCAACACAGUGAGGCAAAGUGGCUGUGGCUAGACUGCC | 0.61
46 | GGCAGAGCUCAACACAGCGUCGCAAAGUGUCUGUGGCUAGACUGCC | 1.1
47 | GGCAGAGCUCAACACAGCGUGGCAAAGUAGCUGUGGCUAGACUACC | 0.36
48 | GGCAGAGCUCAACACAGCGUGGCAAAGUGGCUUUGGCUACACUGCC | 0.05
49 | GGCAGAGCUCAACACAGCGUGGCAAACUGGCUGUGGCGAGACUGCC | 0.02
50 | GACAGAGCUCAACACAGCGUGGCAAAGUGGCUGCGGCUAGACUGCC | 0.19
51 | GGCAGAGCUCAUCACAGCGUGGCAAAGUGGCUGUGGCUAGACUGCU | 0.27
52 | GGCAGAGGUCAACACAGCGUGGCAAAGUGGCUGUUGCUAGACUGCC | 0.2
53 | GGCAGAGCUCAACACAGCGUGGCAAAGUGGCUGUGCCUAGACUGCU | 0.05
54 | GGCAGAGCUCAACGCAGCGUGGCAAAGUGGCUGUGGCUAGACUGGC | 0.2
55 | GGCAGAGCUCAACACAGUGUGGCAAAGUGGCUGUGUCUAGACUGCC | 0.06
56 | GGCAGACCUGAACACAGCGUGGCAAAGUGGCUGUGGCUAGACUGCC | 0.03
